This is an account of results in the supplement of paper PMC6379048.

pKd: −log10 of the molar value.

Assay in all cases: Kd (EC50 corrected by depletion factor)
The target in one data set is GPATCH11 (UniProt Q8N954). The essentials: (§1)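 HEK293-FT lysate (2.5 mg protein/well) was treated with free RNA oligos (0 nM to 30 μM) for 1 h at 4°C, then with the same oligos on NHS-Sepharose beads for 30 min at 4°C. Bound proteins were quantified by label-free LC-MS/MS relative to the control. EC50 came from a four-parameter log-logistic fit, and Kd is EC50 times a protein-dependent depletion factor.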

In another data set the target is T1, IFIT5 (UniProt Q13325).
T1 sequence: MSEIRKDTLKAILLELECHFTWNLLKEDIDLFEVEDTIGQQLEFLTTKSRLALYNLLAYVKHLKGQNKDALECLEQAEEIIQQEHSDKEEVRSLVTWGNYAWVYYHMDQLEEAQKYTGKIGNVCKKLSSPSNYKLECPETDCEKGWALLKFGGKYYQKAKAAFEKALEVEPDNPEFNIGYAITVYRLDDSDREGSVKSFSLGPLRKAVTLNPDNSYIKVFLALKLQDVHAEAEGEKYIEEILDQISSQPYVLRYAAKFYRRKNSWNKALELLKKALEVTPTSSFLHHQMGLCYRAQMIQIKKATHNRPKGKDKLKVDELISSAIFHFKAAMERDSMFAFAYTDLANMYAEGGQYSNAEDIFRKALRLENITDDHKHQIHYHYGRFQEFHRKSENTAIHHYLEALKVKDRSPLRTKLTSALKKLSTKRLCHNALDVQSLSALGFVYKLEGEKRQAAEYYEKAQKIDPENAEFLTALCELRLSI
Put shortly:
as §1

In a further data set the target is T2, ANGEL2 (UniProt Q5VTE6).
T2 sequence: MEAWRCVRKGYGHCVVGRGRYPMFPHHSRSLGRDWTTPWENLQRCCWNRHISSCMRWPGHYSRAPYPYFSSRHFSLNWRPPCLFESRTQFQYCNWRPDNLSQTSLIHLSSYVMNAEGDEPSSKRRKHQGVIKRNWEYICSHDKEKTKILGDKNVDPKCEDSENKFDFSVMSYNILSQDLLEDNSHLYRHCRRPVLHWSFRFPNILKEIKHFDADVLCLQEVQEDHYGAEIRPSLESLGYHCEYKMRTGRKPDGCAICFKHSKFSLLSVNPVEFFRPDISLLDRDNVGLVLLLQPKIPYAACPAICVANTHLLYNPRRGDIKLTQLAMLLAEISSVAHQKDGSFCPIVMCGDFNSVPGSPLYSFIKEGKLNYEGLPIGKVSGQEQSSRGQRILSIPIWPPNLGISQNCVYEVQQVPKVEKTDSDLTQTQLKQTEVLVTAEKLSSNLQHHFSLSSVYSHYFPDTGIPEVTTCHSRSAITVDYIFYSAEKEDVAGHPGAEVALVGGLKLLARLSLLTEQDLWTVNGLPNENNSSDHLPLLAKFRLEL
The essentials:
as §1

A further data set has as its target ICT1 (UniProt Q14197). Put shortly:
as §1

A further data set concerns the target IGF2BP3 (UniProt O00425). Put shortly:
as §1

In another data set the target is PCBP1 (UniProt Q15365). The essentials: as §1
For the next data set, the target named is T3, MEX3C (UniProt Q5U5Q3).
T3 sequence: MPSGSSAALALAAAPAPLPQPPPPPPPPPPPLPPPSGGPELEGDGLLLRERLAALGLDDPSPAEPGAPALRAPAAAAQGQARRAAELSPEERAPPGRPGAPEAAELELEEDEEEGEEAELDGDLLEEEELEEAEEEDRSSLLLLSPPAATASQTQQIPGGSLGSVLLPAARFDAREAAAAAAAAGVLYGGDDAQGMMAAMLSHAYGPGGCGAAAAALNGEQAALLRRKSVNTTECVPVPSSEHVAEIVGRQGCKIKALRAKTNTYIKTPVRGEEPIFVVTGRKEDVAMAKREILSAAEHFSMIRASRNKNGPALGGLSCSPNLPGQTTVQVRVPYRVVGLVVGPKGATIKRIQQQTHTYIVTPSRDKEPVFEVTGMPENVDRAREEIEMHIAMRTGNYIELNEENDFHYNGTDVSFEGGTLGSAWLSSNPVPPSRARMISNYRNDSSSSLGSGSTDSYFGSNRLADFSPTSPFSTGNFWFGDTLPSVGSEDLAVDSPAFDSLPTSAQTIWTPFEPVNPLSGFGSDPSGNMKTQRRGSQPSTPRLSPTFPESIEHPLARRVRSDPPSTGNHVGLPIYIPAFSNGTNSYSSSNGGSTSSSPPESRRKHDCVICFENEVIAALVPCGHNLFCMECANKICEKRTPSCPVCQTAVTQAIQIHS
The essentials:
as §1

Chain of GPATCH11 (Q8N954 whole entry): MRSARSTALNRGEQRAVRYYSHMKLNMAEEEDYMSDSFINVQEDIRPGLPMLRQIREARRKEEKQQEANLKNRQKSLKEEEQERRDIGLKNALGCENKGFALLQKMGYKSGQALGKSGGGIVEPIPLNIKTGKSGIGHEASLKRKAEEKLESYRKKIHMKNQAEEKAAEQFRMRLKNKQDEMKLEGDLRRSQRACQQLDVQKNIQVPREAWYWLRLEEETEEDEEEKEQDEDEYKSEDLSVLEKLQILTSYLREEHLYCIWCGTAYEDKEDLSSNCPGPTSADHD
Chain of PCBP1 (Q15365 whole entry): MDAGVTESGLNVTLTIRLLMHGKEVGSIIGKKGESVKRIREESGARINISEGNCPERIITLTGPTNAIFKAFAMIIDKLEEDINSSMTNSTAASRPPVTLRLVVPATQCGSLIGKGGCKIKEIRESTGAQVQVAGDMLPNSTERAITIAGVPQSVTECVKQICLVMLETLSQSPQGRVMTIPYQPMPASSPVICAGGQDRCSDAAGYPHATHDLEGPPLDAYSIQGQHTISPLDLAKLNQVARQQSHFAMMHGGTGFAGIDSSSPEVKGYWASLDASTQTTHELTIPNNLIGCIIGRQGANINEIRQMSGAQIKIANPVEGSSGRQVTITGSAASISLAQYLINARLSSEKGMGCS
Chain of IGF2BP3 (O00425 whole entry): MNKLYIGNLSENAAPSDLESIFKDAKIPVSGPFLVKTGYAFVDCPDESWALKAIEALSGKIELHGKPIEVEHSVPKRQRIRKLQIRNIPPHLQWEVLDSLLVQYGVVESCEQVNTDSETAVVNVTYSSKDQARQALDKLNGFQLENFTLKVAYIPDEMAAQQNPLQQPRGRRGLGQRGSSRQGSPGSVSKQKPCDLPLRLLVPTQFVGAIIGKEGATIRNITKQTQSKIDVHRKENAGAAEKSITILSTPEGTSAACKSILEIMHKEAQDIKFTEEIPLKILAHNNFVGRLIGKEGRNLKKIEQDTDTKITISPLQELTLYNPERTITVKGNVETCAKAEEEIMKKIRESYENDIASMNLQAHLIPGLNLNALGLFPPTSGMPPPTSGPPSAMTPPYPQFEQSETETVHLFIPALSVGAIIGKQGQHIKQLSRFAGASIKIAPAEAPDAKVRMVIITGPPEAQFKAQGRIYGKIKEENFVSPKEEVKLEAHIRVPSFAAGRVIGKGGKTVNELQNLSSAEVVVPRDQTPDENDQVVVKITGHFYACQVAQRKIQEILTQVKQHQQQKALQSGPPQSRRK

Consider AAUAAA, for which the pKd with GPATCH11 was 7.49; with IFIT5, 6.44.

With CUGUCCU, the pKd was 6.84 with ANGEL2, 7.32 with ICT1, 6.16 in the data set with IGF2BP3 and 5.81 with PCBP1.

In the case of UAUUUAU, the pKd in the data set with MEX3C was 6.47.
